Here are results for two proteins from article PMC9008408.

Data set [1] in a line: anti-Flag IP, ubiquitin blot, MG132, A549-LV-TIM-4-Flag. The settings on record: glycan lost; control: no TM.
Data set [2] can be described thus: CHX chase, western blot of remaining protein, HEK293. The settings on record: glycan lost; control: wild type TIM-4, no TM. For orientation: In western blotting, separated proteins are transferred to a membrane and probed.
The nature of data set [3]: anti-HA IP, ubiquitin blot, MG132, A549. The settings on record: glycan lost; control: wild type TIM-4.
A short description of data set [4]: confocal immunofluorescence, mCherry-Sec61b ER marker, A549. The following applies: glycan lost; control: wild type TIM-4.

B1: TIM-4: TM (protein)
parent chain: MSKEPLILWLMIEFWWLYLTPVTSETVVTEVLGHRVTLPCLYSSWSHNSNSMCWGKDQCPYSGCKEALIRTDGMRVTSRKSAKYRLQGTIPRGDVSLTILNPSESDSGVYCCRIEVPGWFNDVKINVRLNLQRASTTTHRTATTTTRRTTTTSPTTTRQMTTTPAALPTTVVTTPDLTTGTPLQMTTIAVFTTANTCLSLTPSTLPEEATGLLTPEPSKEGPILTAESETVLPSDSWSSVESTSADTVLLTSKESKVWDLPSTSHVSMWKTSDSVSSPQPGASDTAVPEQNKTTKTGQMDGIPMSMKNEMPISQLLMIIAPSLGFVLFALFVAFLLRGKLMETYCSQKHTRLDYIGDSKNVLNDVQHGREDEDGLFTL
With B1, the “other: ubiquitination” value in data set [1] is “increases”. Besides, in data set [2], the degradation_or_half_life result was “decreases”.

B2: TIM-4: N291Q (protein)
parent chain: B1 parent chain
For B2, the “other: ubiquitination” value in data set [3] is reported as “increases”. For the same protein, the localisation_or_trafficking entry in data set [4] is “changes, co-localized with the ER-tracker compared with wild type TIM-4”.
